Reference: paper PMC7809406, “Structure of a full-length bacterial polysaccharide co-polymerase” (Nature Communications, 2021)

Target: the molecule itself
Assay: cryo-EM structure; single-particle analysis of SEC population 1 in DDM (25 mM TRIS pH 8.0, 100 mM NaCl, 3% glycerol, 0.5 mM TCEP, 0.02% DDM), 3.0 mg/mL; protomers to octamer; maps with C1 and C8 symmetry

| Protein | stoichiometry N |
| --- | --- |
| Full-length WzzB polysaccharide co-polymerase of E. coli (natural protein, E. coli K12, UniProt P76372 1-326, looked up, WzzB, polysaccharide co-polymerase (O-antigen chain length regulator), amplified from E. coli K12 genomic DNA; full-length gene; Integral membrane protein in a DDM micelle; The 8×His tag is non-cleavable (modified pWaldo vector); About 25% of the particles are dimers of the octamer; also called native protein; polysaccharide co-polymerase (PCP) Wzz; source: E. coli C41, membranes solubilized with …) MRVENNNVSGQNHDPEQIDLIDLLVQLWRGKMTIIISVIVAIALAIGYLAVAKEKWTSTAIITQPDVGQIAGYNNAMNVIYGQAAPKVSDLQETLIGRFSSAFSALAETLDNQEEREKLTIEPSVKNQQLPLTVSYVGQTAEGAQMKLAQYIQQVDDKVNQELEKDLKDNIALGRKNLQDSLRTQEVVAQEQKDLRIRQIQEALQYANQAQVTKPQIQQTGEDITQDTLFLLGSEALESMIKHEATRPLVFSPNYYQTRQNLLDIESLKVDDLDIHAYRYVMKPMLPIRRDSPKKAITLILAVLLGGMVGAGIVLGRNALRNYNAK | 8 |
| N-terminal truncated WzzB, missing residues 1-15 (truncated E16M variant) (domain or fragment, E. coli K12, UniProt P76372 16-326, looked up, WzzB of E. coli K12 missing the first 15 amino acids; a start codon was introduced at position 16 (E16M); Same vector and non-cleavable C-terminal 8×His tag as m1; Virtually all particles are dimers of octamers; also called N-terminally truncated WzzB; N-terminally truncated variant; source: E. coli C41, membranes solubilized with 1% DDM, purified (Ni-NTA, Superdex 200 SEC); not shown: 8×His, …) MQIDLIDLLVQLWRGKMTIIISVIVAIALAIGYLAVAKEKWTSTAIITQPDVGQIAGYNNAMNVIYGQAAPKVSDLQETLIGRFSSAFSALAETLDNQEEREKLTIEPSVKNQQLPLTVSYVGQTAEGAQMKLAQYIQQVDDKVNQELEKDLKDNIALGRKNLQDSLRTQEVVAQEQKDLRIRQIQEALQYANQAQVTKPQIQQTGEDITQDTLFLLGSEALESMIKHEATRPLVFSPNYYQTRQNLLDIESLKVDDLDIHAYRYVMKPMLPIRRDSPKKAITLILAVLLGGMVGAGIVLGRNALRNYNAK | 8 |
